Data reported in the supplement of paper PMC11908140.

B1: library; numbered along this chain (parent)
chain: MRKPRAAVGSGHRKQAASQEGRQKHAKNNSQAKPSACDGLARQPEEVVLQASVSSYHLFRDVAEVTAFRGSLLSWYDQEKRDLPWRRRAEDEMDLDRRAYAVWVSEVMLQQTQVATVINYYTGWMQKWPTLQDLASASLEEVNQLWAGLGYYSRGRRLQEGARKVVEELGGHMPRTAETLQQLLPGVGRYTAGAIASIAFGQATGVVDGNVARVLCRVRAIGADPSSTLVSQQLWGLAQQLVDPARPGDFNQAAMELGATVCTPQRPLCSQCPVESLCRARQRVEQEQLLASGSLSGSPDVEECAPNTGQCHLCLPPSEPWDQTLGVVNFPRKASRKPPREESSATCVLEQPGALGAQILLVQRPNSGLLAGLWEFPSVTWEPSEQLQRKALLQELQRWAGPLPATHLRHLGEVVHTFSHIKLTYQVYGLALEGQTPVTTVPPGARWLTQEEFHTAAVSTAMKKVFRVYQGQQPGTCMGSKRSQVSSPCSRKKPRMGQQVLDNFFRSHISTDAHSLNSAAQ

Variants of: B1
Test: 8OG:A repair function score (normalized; synonymous = 0, nonsense = -1) (normalized log-likelihood score); higher = more repair activity (WT-like)
Conditions: with 8OG:A DNA repair reporter (GFP) in HEK-293 MUTYH KO cells
Procedure, shortened: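 Per-tile Rosace fitness scores were converted to a normalized repair function score anchored on synonymous and nonsense distributions. That scale puts synonymous medians at 0 and nonsense medians at -1. Variants with starting counts under 300 counts per million were discarded. Input came from sorting viable mCherry+ MUTYH knockout HEK-293 cells, carrying lentiviral MUTYH cDNA NNN codon-scan libraries in 10 pg/ml doxycycline and an 8OG:A GFP repair reporter, into GFP+ and GFP− bins at 72 h, three replicates per tile, followed by tile amplicon sequencing.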
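Also: cells sorted at 72 h after reporter transfection.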

8OG:A repair function score: each site, then its substitutions
G297: H 0.00021 | L -0.000773 | W -0.206 | N -0.00835
L289: F -0.00169 | Y -0.00792 | R -0.0177 | K -0.0314 | W -0.0271 | M -0.0277 | A 0.00592 | T 0.0028 | V -0.0422 | G -0.00218 | Q 0.015 | P -0.0119 | H 0.0106 | D -0.0394 | N -0.057 | S -0.0139 | E -0.00394 | I 0.00652 | C -0.0659
A291: R -0.0282 | T -0.0451 | Y 0.0195 | C -0.0481 | S -0.000102 | P -0.0656 | N 0.0139 | Q 0.00288 | K 0.00353 | M -0.0586 | H -0.0755 | I -0.0181 | D -0.119 | F -0.0509 | V -0.0187 | E -0.125 | L -0.0339 | G -0.0909 | W -0.0221
S294: Q -0.0283 | G -0.00188 | P -0.0152 | C -0.00327 | W -0.0117 | T 0.00194 | K -0.0502 | E 0.00208 | M -0.0115 | D -0.0514 | F -0.0489 | H -0.0171 | A -0.012 | I 0.00404 | L -0.0244 | R -0.00624 | V -0.0111 | Y -0.0109 | N 0.0126
S296: H -0.0357 | P -0.00535 | G -0.0331 | C -0.0117 | T -0.0451 | L -0.0062 | F -0.00655 | W 0.0254 | Y 0.0195 | D 0.0216 | N -0.0281 | Q -0.00136 | R 0.0309 | E -0.0247 | I -0.0485 | V 0.0116 | M -0.0125 | K -0.0357 | A -0.0202
E285: M -9.17e-05 | K -0.0741 | Q -0.00364 | P -0.129 | I -0.0117 | F 0.000814 | N -0.0168 | H -0.0454 | W 0.0108 | G -0.0139 | R 0.00385 | T -0.0287 | D -0.0239 | L -0.000221 | S 0.0138 | A 0.00663 | C -0.00692 | V 0.00347 | Y -0.0542
E287: D -0.0111 | R -0.0601 | A -0.017 | I -0.038 | H -0.047 | G -0.0256 | P -0.121 | F -0.0154 | K -0.0128 | T -0.00299 | C -0.037 | M 0.0384 | L -0.0229 | S 0.005 | V -0.04 | W -0.0668 | N -0.0363 | Y -0.00218 | Q -0.114
Q288: K -0.0373 | C -0.0156 | L -0.0159 | R -0.00978 | M -0.03 | W -0.0268 | I -0.0801 | T 0.00195 | P -0.036 | Y -0.0255 | D -0.0736 | S -0.0113 | V -0.068 | H 0.00465 | N 0.0202 | A 0.00699 | F -0.016 | E -0.0177 | G -0.0129
G293: M -0.0432 | R -0.00692 | I -0.0531 | F -0.0692 | C -0.0307 | H -0.05 | T -0.0505 | W 0.000227 | V -0.0545 | A -0.0268 | E -0.0308 | K -0.0447 | D -0.124 | Y -0.0734 | N -0.03 | S -0.0376 | P -0.0254 | Q -0.00725 | L -0.0631
Q282: S -0.0408 | K 0.0141 | P -0.526 | V -0.0489 | M -0.0222 | L -0.0273 | N -0.0575 | T -0.0623 | W -0.0465 | Y -0.0373 | R -0.0175
